Like-named read-outs stand apart in the source and are kept apart here.
Key:
[1] = test system: T1, cytokine receptor common gamma chain (γc), wild type
T1 sequence: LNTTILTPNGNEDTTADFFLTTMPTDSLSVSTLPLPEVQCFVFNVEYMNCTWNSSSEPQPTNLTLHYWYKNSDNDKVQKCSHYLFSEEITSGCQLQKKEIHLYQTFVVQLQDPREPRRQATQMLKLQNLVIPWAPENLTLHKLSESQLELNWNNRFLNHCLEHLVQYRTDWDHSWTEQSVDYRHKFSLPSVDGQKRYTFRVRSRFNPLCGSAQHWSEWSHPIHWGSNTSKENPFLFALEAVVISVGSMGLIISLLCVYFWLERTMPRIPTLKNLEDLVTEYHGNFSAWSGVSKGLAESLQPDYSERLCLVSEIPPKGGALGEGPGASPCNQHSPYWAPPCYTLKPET

[2] = biological target: T2, cytokine receptor common gamma chain (γc), wild type
T2 chain: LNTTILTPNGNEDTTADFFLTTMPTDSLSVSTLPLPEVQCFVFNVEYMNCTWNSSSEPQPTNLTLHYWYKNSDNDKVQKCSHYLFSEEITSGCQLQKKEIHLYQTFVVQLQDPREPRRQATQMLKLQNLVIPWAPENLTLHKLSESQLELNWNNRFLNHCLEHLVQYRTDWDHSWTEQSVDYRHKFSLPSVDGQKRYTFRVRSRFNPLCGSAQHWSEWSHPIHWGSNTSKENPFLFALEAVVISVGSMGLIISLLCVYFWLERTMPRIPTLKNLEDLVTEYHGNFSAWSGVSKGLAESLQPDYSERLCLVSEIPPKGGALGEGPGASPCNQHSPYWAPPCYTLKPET

[3] = biological target: T3, cytokine receptor common gamma chain (γc), wild type (human, UniProt P31785 23-369); assay: co-immunoprecipitation (summary of the combined results)
T3 construct: also called WT γc; gc
T3 sequence: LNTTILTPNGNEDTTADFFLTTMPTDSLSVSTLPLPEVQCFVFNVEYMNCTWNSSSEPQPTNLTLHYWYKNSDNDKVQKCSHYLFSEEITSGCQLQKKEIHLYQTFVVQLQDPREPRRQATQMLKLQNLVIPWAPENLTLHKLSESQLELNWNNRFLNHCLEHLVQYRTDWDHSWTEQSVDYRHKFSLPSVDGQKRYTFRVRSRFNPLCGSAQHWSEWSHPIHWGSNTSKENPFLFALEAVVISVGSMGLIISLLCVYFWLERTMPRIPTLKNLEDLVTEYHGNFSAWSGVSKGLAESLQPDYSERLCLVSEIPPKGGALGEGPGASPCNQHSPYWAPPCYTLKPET

Row | Binder | IL-2 induced tyrosine phosphorylation of STAT5b in IL-2R+ fibroblasts [1] | binding result [3] | other results
1 | Jak3/Jak1 chimera J3 1-256 (enzyme, part only; not given: Jak1 C-terminal part and tag) chain, part: MAPPSEETPLIPQRSCSLLSTEAGALHVLLPARAPGPPQRLSFSFGDHLAEDLCVQAAKASGILPVYHSLFALATEDLSCWFPPSHIFSVEDASTQVLLYRIRFYFPNWFGLEKCHRFGLRKDLASAILDLPVLEHLFAQHRSDLVSGRLPVGLSLKEQGECLSLAVLDLARMAREQAQRPGELLKTVSYKACLPPSLRDLIQGLSFVTRRAIRRTVRRALPRVAACQADRHSLMAKYIMDLERLDPAGAAETFHV | the J3 1-256 chimera (encoding both of the entire JH7/JH6 regions) responded to IL-2 stimulation by tyrosine phosphorylating STAT5b |  | IL-2 induced tyrosine phosphorylation of the chimera in IL-2R+ fibroblasts [1]: The smallest region of a chimeric Jak3/Jak1 which reconstituted IL-2-induced tyrosine phosphorylation was a region that contained both of the entire JH7 and JH6 domains; phosphorylation of IL-2Rβ after IL-2 in IL-2R+ fibroblasts [1]: it was only detected in cell lines that expressed Jak3/Jak1 chimeras having the entire JH7 and JH6 domains
2 | Jak3/Jak1 chimera J3 1-130 (enzyme, part only; not given: Jak1 C-terminal part and tag) chain, part: MAPPSEETPLIPQRSCSLLSTEAGALHVLLPARAPGPPQRLSFSFGDHLAEDLCVQAAKASGILPVYHSLFALATEDLSCWFPPSHIFSVEDASTQVLLYRIRFYFPNWFGLEKCHRFGLRKDLASAILD | cells expressing the J3 1-130 chimera also failed to demonstrate STAT5b phosphorylation |  | 
3 | wild-type Jak3 (protein) MAPPSEETPLIPQRSCSLLSTEAGALHVLLPARAPGPPQRLSFSFGDHLAEDLCVQAAKASGILPVYHSLFALATEDLSCWFPPSHIFSVEDASTQVLLYRIRFYFPNWFGLEKCHRFGLRKDLASAILDLPVLEHLFAQHRSDLVSGRLPVGLSLKEQGECLSLAVLDLARMAREQAQRPGELLKTVSYKACLPPSLRDLIQGLSFVTRRAIRRTVRRALPRVAACQADRHSLMAKYIMDLERLDPAGAAETFHVGLPGALGGHDGLGLLRVAGDGGIAWTQGEQEVLQPFCDFPEIVDISIKQAPRVGPAGEHRLVTVTRTDNQILEAEFPGLPEALSFVALVDGYFRLTTDSQHFFCKEVAPPRLLEEVAEQCHGPITLDFAINKLKTGGSRPGSYVLRRSPQDFDSFLLTVCVQNPLGPDYKGCLIRRSPTGTFLLVGLSRPHSSLRELLATCWDGGLHVDGVAVTLTSCCIPRPKEKSNLIVVQRGHSPPTSSLVQPQSQYQLSQMTFHKIPADSLEWHENLGHGSFTKIYRGCRHEVVDGEARKTEVLLKVMDAKHKNCMESFLEAASLMSQVSYRHLVLLHGVCMAGDSTMVQEFVHLGAIDMYLRKRGHLVPASWKLQVVKQLAYALNYLEDKGLPHGNVSARKVLLAREGADGSPPFIKLSDPGVSPAVLSLEMLTDRIPWVAPECLREAQTLSLEADKWGFGATVWEVFSGVTMPISALDPAKKLQFYEDRQQLPAPKWTELALLIQQCMAYEPVQRPSFRAVIRDLNSLISSDYELLSDPTPGALAPRDGLWNGAQLYACQDPTIFEERHLKYISQLGKGNFGSVELCRYDPLAHNTGALVAVKQLQHSGPDQQRDFQREIQILKALHSDFIVKYRGVSYGPGRPELRLVMEYLPSGCLRDFLQRHRARLDASRLLLYSSQICKGMEYLGSRRCVHRDLAARNILVESEAHVKIADFGLAKLLPLDKDYYVVREPGQSPIFWYAPESLSDNIFSRQSDVWSFGVVLYELFTYCDKSCSPSAEFLRMMGCERDVPALCRLLELLEEGQRLPAPPACPAEVHELMKLCWAPSPQDRPSFSALGPQLDMLWSGSRGCETHAFTAHPEGKHHSLSFS |  |  | IL-2 induced tyrosine phosphorylation of Jak3 in IL-2R+ fibroblasts [2]: Jak3 was rapidly tyrosine phosphorylated and associated with the IL-2 receptor complex; IL-2 induced tyrosine phosphorylation of STAT5b in IL-2R+ fibroblasts [2]: Cells expressing wild type Jak3 (WT) exhibited tyrosine phosphorylation of STAT5b
4 | Jak3 L98A (enzyme, also called Leucine 98A; not shown: C-terminal FLAG or Myc tag joined through a ClaI site) MAPPSEETPLIPQRSCSLLSTEAGALHVLLPARAPGPPQRLSFSFGDHLAEDLCVQAAKASGILPVYHSLFALATEDLSCWFPPSHIFSVEDASTQVALYRIRFYFPNWFGLEKCHRFGLRKDLASAILDLPVLEHLFAQHRSDLVSGRLPVGLSLKEQGECLSLAVLDLARMAREQAQRPGELLKTVSYKACLPPSLRDLIQGLSFVTRRAIRRTVRRALPRVAACQADRHSLMAKYIMDLERLDPAGAAETFHVGLPGALGGHDGLGLLRVAGDGGIAWTQGEQEVLQPFCDFPEIVDISIKQAPRVGPAGEHRLVTVTRTDNQILEAEFPGLPEALSFVALVDGYFRLTTDSQHFFCKEVAPPRLLEEVAEQCHGPITLDFAINKLKTGGSRPGSYVLRRSPQDFDSFLLTVCVQNPLGPDYKGCLIRRSPTGTFLLVGLSRPHSSLRELLATCWDGGLHVDGVAVTLTSCCIPRPKEKSNLIVVQRGHSPPTSSLVQPQSQYQLSQMTFHKIPADSLEWHENLGHGSFTKIYRGCRHEVVDGEARKTEVLLKVMDAKHKNCMESFLEAASLMSQVSYRHLVLLHGVCMAGDSTMVQEFVHLGAIDMYLRKRGHLVPASWKLQVVKQLAYALNYLEDKGLPHGNVSARKVLLAREGADGSPPFIKLSDPGVSPAVLSLEMLTDRIPWVAPECLREAQTLSLEADKWGFGATVWEVFSGVTMPISALDPAKKLQFYEDRQQLPAPKWTELALLIQQCMAYEPVQRPSFRAVIRDLNSLISSDYELLSDPTPGALAPRDGLWNGAQLYACQDPTIFEERHLKYISQLGKGNFGSVELCRYDPLAHNTGALVAVKQLQHSGPDQQRDFQREIQILKALHSDFIVKYRGVSYGPGRPELRLVMEYLPSGCLRDFLQRHRARLDASRLLLYSSQICKGMEYLGSRRCVHRDLAARNILVESEAHVKIADFGLAKLLPLDKDYYVVREPGQSPIFWYAPESLSDNIFSRQSDVWSFGVVLYELFTYCDKSCSPSAEFLRMMGCERDVPALCRLLELLEEGQRLPAPPACPAEVHELMKLCWAPSPQDRPSFSALGPQLDMLWSGSRGCETHAFTAHPEGKHHSLSFS |  | no binding | 
5 | Jak3 Y100A mutant (enzyme, not shown: C-terminal FLAG or Myc tag joined through a ClaI site) MAPPSEETPLIPQRSCSLLSTEAGALHVLLPARAPGPPQRLSFSFGDHLAEDLCVQAAKASGILPVYHSLFALATEDLSCWFPPSHIFSVEDASTQVLLARIRFYFPNWFGLEKCHRFGLRKDLASAILDLPVLEHLFAQHRSDLVSGRLPVGLSLKEQGECLSLAVLDLARMAREQAQRPGELLKTVSYKACLPPSLRDLIQGLSFVTRRAIRRTVRRALPRVAACQADRHSLMAKYIMDLERLDPAGAAETFHVGLPGALGGHDGLGLLRVAGDGGIAWTQGEQEVLQPFCDFPEIVDISIKQAPRVGPAGEHRLVTVTRTDNQILEAEFPGLPEALSFVALVDGYFRLTTDSQHFFCKEVAPPRLLEEVAEQCHGPITLDFAINKLKTGGSRPGSYVLRRSPQDFDSFLLTVCVQNPLGPDYKGCLIRRSPTGTFLLVGLSRPHSSLRELLATCWDGGLHVDGVAVTLTSCCIPRPKEKSNLIVVQRGHSPPTSSLVQPQSQYQLSQMTFHKIPADSLEWHENLGHGSFTKIYRGCRHEVVDGEARKTEVLLKVMDAKHKNCMESFLEAASLMSQVSYRHLVLLHGVCMAGDSTMVQEFVHLGAIDMYLRKRGHLVPASWKLQVVKQLAYALNYLEDKGLPHGNVSARKVLLAREGADGSPPFIKLSDPGVSPAVLSLEMLTDRIPWVAPECLREAQTLSLEADKWGFGATVWEVFSGVTMPISALDPAKKLQFYEDRQQLPAPKWTELALLIQQCMAYEPVQRPSFRAVIRDLNSLISSDYELLSDPTPGALAPRDGLWNGAQLYACQDPTIFEERHLKYISQLGKGNFGSVELCRYDPLAHNTGALVAVKQLQHSGPDQQRDFQREIQILKALHSDFIVKYRGVSYGPGRPELRLVMEYLPSGCLRDFLQRHRARLDASRLLLYSSQICKGMEYLGSRRCVHRDLAARNILVESEAHVKIADFGLAKLLPLDKDYYVVREPGQSPIFWYAPESLSDNIFSRQSDVWSFGVVLYELFTYCDKSCSPSAEFLRMMGCERDVPALCRLLELLEEGQRLPAPPACPAEVHELMKLCWAPSPQDRPSFSALGPQLDMLWSGSRGCETHAFTAHPEGKHHSLSFS |  | no binding | 
6 | Jak3 I102A (enzyme, not shown: C-terminal FLAG or Myc tag joined through a ClaI site) MAPPSEETPLIPQRSCSLLSTEAGALHVLLPARAPGPPQRLSFSFGDHLAEDLCVQAAKASGILPVYHSLFALATEDLSCWFPPSHIFSVEDASTQVLLYRARFYFPNWFGLEKCHRFGLRKDLASAILDLPVLEHLFAQHRSDLVSGRLPVGLSLKEQGECLSLAVLDLARMAREQAQRPGELLKTVSYKACLPPSLRDLIQGLSFVTRRAIRRTVRRALPRVAACQADRHSLMAKYIMDLERLDPAGAAETFHVGLPGALGGHDGLGLLRVAGDGGIAWTQGEQEVLQPFCDFPEIVDISIKQAPRVGPAGEHRLVTVTRTDNQILEAEFPGLPEALSFVALVDGYFRLTTDSQHFFCKEVAPPRLLEEVAEQCHGPITLDFAINKLKTGGSRPGSYVLRRSPQDFDSFLLTVCVQNPLGPDYKGCLIRRSPTGTFLLVGLSRPHSSLRELLATCWDGGLHVDGVAVTLTSCCIPRPKEKSNLIVVQRGHSPPTSSLVQPQSQYQLSQMTFHKIPADSLEWHENLGHGSFTKIYRGCRHEVVDGEARKTEVLLKVMDAKHKNCMESFLEAASLMSQVSYRHLVLLHGVCMAGDSTMVQEFVHLGAIDMYLRKRGHLVPASWKLQVVKQLAYALNYLEDKGLPHGNVSARKVLLAREGADGSPPFIKLSDPGVSPAVLSLEMLTDRIPWVAPECLREAQTLSLEADKWGFGATVWEVFSGVTMPISALDPAKKLQFYEDRQQLPAPKWTELALLIQQCMAYEPVQRPSFRAVIRDLNSLISSDYELLSDPTPGALAPRDGLWNGAQLYACQDPTIFEERHLKYISQLGKGNFGSVELCRYDPLAHNTGALVAVKQLQHSGPDQQRDFQREIQILKALHSDFIVKYRGVSYGPGRPELRLVMEYLPSGCLRDFLQRHRARLDASRLLLYSSQICKGMEYLGSRRCVHRDLAARNILVESEAHVKIADFGLAKLLPLDKDYYVVREPGQSPIFWYAPESLSDNIFSRQSDVWSFGVVLYELFTYCDKSCSPSAEFLRMMGCERDVPALCRLLELLEEGQRLPAPPACPAEVHELMKLCWAPSPQDRPSFSALGPQLDMLWSGSRGCETHAFTAHPEGKHHSLSFS |  | no binding | 
